In publication PMC5763115, “Nesprin-2 Interacts with Condensin Component SMC2” (International Journal of Cell Biology, 2017):

Molecular target: the molecule itself
Assay: SEC; Nesprin-2-SMC released from GST by thrombin, on a Sephadex G-200 gel filtration column; markers ovalbumin 43 kDa, conalbumin 75 kDa, aldolase 158 kDa; fractions also checked by SDS-PAGE

B1: Nesprin-2-SMC (domain or fragment, human, UniProt Q8WXH0 1436-1766, looked up)
chain: NNELLKNIQDVQSQISKIGLKDPTVPAVKHRKKSLIRLDKVLDEYEEEKRHLQEMANSLPHFKDGREKTVNQQCQNTVVLWENTKALVTECLEQCGRVLELLKQYQNFKSILTTLIQKEESVISLQASYMGKENLKKRIAEIEIVKEEFNEHLEVVDKINQVCKNLQFYLNKMKTFEEPPFEKEANIIVDRWLDINEKTEDYYENLGRALALWDKLFNLKNVIDEWTEKALQKMELHQLTEEDRERLKEELQVHEQKTSEFSRRVAEIQFLLQSSEIPLELQVMESSILNKMEHVQKCLTGESNCHALSGSTAELREDLDQAKTQIGMTES
notes: Nesprin-2, human, SMC domain, aa 1436-1766, spectrin repeats 11-13; Calculated molecular weight 38.78 kDa (39 kDa); also called Nesprin-2-SMC domain; SMC polypeptide; source: E. coli XL-1 blue, purified (Glutathione-Sepharose 4B, released from GST by thrombin cleavage); not shown: GST, N-terminal, cleaved
B1: binds.
